Results as given in patent US20240252614A1 (Pfizer, published 2024).

What was measured:
Assay in all cases: BLI, 58C stress
hMPV A F WT Control = hMPV A F WT Control (hMPV A, UniProt Q6WB98 19-102)
Experimental: (§1) The OCTET HTX (Sartorius, Gottingen, Germany) instrument was used to evaluate the expression and conformational integrity for each mutant. All measurements were conducted at 30° C. temperature in 96-well black plates (Corning, Corning, NY) with a final volume of 240 μL per well at a constant agitation rate of 1000 RPM.
(§2) Conformation integrity of hMPV A F protein mutants were evaluated by thermal stress experiments. Crude cell culture supernatants were normalized based on the results of the titer quantitation and then incubated for 1 hour at room temperature and two higher temperatures. […] Anti-Human IgG Fc Capture (AHC) biosensors were first equilibrated in PB before being dipped into more PB to establish the initial baseline. […] The mAb-bound biosensors were then dipped into the thermal stressed cell culture supernatants for 5 minutes. The kinetics analysis was done by OCTET data analysis software (version 12.0, Sartorius) based on curve fitting of the entire associate step.

hMPV085 = target: T1, hMPV085 (hMPV A, UniProt Q6WB98 19-102)
T1 construct: T411C-Q434C, L141C-A161C, A459P
Experimental: as §1, §2

hMPV090 = target: T2, hMPV090 (hMPV A, UniProt Q6WB98 19-102)
T2 construct: T411C-Q434C, L141C-A161C, A459P, G239A, T49I, S149T, T365I
Experimental: as §1, §2

hMPV087 = target: T3, hMPV087 (hMPV A, UniProt Q6WB98 19-102)
T3 construct: T411C-Q434C, L141C-A161C, T365I
Experimental: as §1, §2

hMPV081 = target: T4, hMPV081 (hMPV A, UniProt Q6WB98 19-102)
T4 construct: T411C-Q434C, A140C-S149C, T365I
Experimental: as §1, §2

B1: hMPV-2 mAb (antibody, V domains shown)
VH: QVQLQQSGAEVKKPGASVKVSCKASGYTFTSYGISWVRQAPGQGLEWMGWISGYNGNTNYAQTFQGTFTMTTDTSTSTAYMELRRLRSGDTAVYYCARDRYYASGSYNGMDVWGQGTTVTVSS
VL: QSALTQPPSASGAPGQRVTVSCSGSSSNVGSSSVYWYQQLPGTAPKLLIYRNNQRPSGVPDRFSGSKSGTSASLAISGLRSEDEADYYCAAWDDSLSGWVFGGGTKLTVLG
notes: human IgG1
Response Shift (hMPV A F WT Control): 0.015 nm
Response Shift (hMPV085): 0.076 nm
Response Shift (hMPV090): 0.77 nm
Response Shift (hMPV087): 0.763 nm
Response Shift (hMPV081): 0.804 nm
